Laboratory results published in patent US4235962A, “Combination kit for transaminase assay of a body fluid” (The Dow Chemical Company, priority 1978, dated 1980).

B1: ALT (alanine 2-oxoglutarate aminotransferase) (Homo sapiens) (protein)
chain: ASSTGDRSQAVRHGLRAKVLTLDGMNPRVRRVEYAVRGPIVQRALELEQELRQGVKKPFTEVIRANIGDAQAMGQRPITFLRQVLALCVNPDLLSSPNFPDDAKKRAERILQACGGHSLGAYSVSSGIQLIREDVARYIERRDGGIPADPNNVFLSTGASDAIVTVLKLLVAGEGHTRTGVLIPIPQYPLYSATLAELGAVQVDYYLDEERAWALDVAELHRALGQARDHCRPRALCVINPGNPTGQVQTRECIEAVIRFAFEERLFLLADEVYQDNVYAAGSQFHSFKKVLMEMGPPYAGQQELASFHSTSKGYMGECGFRGGYVEVVNMDAAVQQQMLKLMSVRLCPPVPGQALLDLVVSPPAPTDPSFAQFQAEKQAVLAELAAKAKLTEQVFNEAPGISCNPVQGAMYSFPRVQLPPRAVERAQELGLAPDMFFCLRLLEETGICVVPGSGFGQREGTYHFRMTILPPLEKLRLLLEKLSRFHAKFTLEYS
B2: AST (aspartate 2-oxoglutarate aminotransferase) (Homo sapiens) (protein)
chain: APPSVFAEVPQAQPVLVFKLTADFREDPDPRKVNLGVGAYRTDDCHPWVLPVVKKVEQKIANDNSLNHEYLPILGLAEFRSCASRLALGDDSPALKEKRVGGVQSLGGTGALRIGADFLARWYNGTNNKNTPVYVSSPTWENHNAVFSAAGFKDIRSYRYWDAEKRGLDLQGFLNDLENAPEFSIVVLHACAHNPTGIDPTPEQWKQIASVMKHRFLFPFFDSAYQGFASGNLERDAWAIRYFVSEGFEFFCAQSFSKNFGLYNERVGNLTVVGKEPESILQVLSQMEKIVRITWSNPPAQGARIVASTLSNPELFEEWTGNVKTMADRILTMRSELRARLEALKTPGTWNHITDQIGMFSFTGLNPKQVEYLVNEKHIYLLPSGRINVSGLTTKNLDYVATSIHEAVTKIQ

What was measured:
[1] = substrate: C[C@H](N)C(=O)O; experiment: purified protein, by the assay type; conditions: other: 15 mM 2-oxoglutarate
[2] = substrate: N[C@@H](CC(=O)O)C(=O)O; experiment: purified protein, by the assay type
Text: For precise measurement of a bimolecular reaction of the type under discussion, the rate of a reaction, at a given "B" concentration should be independent of A's concentration (i.e. at or near apparent Vmax with respect to A).
A. AST cross measurement in an ALT test for a ping pong mechanism, [formula] […] [formula]
Going through the same mathematical explanation: [formula]

| Protein | Km [1] [mM] | Km ([2]; other: 0.2 mM 2-oxoglutarate) [mM] | Km ([2]; other: 15 mM 2-oxoglutarate) [mM] |
| --- | --- | --- | --- |
| B1 | 18.1 |  |  |
| B2 |  | 0.91 | 10 |
